This passage reports Kd results from publication PMC10945505 (2024).

Targets include FZD7 CRD (Homo sapiens); Human βKlotho (human, UniProt Q86Z14 1-996); L-39F7; L-αGFP.
Holding throughout (test): BLI

B1: F-FGF21ΔN (other)
chain: QRYLYTDDAQQTEAHLEIREDGTVGGAADQSPESLLQLKALKPGVIQILGVKTSRFLCQRPDGALYGSLHFDPEACSFRERLLEDGYNVYQSEAHGLPLHLPGNKSPHRDPAPRGPARFLPLPGLPPALPEPPGILAPQPPDVGSSDPLSMVGGSQGRSPSYES
As for B1, the values for the Kd with FZD7 CRD and with Human βKlotho were 82.5 nM and 11.8 nM, respectively.

B2: LRP6E3E4 (protein)
chain: EAFLLFSRRADIRRISLETNNNNVAIPLTGVKEASALDFDVTDNRIYWTDISLKTISRAFMNGSALEHVVEFGLDYPEGMAVDWLGKNLYWADTGTNRIEVSKLDGQHRQVLVWKDLDSPRALALDPAEGFMYWTEWGGKPKIDRAAMDGSERTTLVPNVGRANGLTIDYAKRRLYWTDLDTNLIESSNMLGLNREVIADDLPHPFGLTQYQDYIYWTDWSRRSIERANKTSGQNRTIIQGHLDYVMDILVFHSSRQSGWNECASSNGHCSHLCLAVPVGGFVCGCPAHYSLNADNRTCSAPTTFLLFSQKSAINRMVIDEQQSPDIILPIHSLRNVRAIDYDPLDKQLYWIDSRQNMIRKAQEDGSQGFTVVVSSVPSQNLEIQPYDLSIDIYSRYIYWTCEATNVINVTRLDGRSVGVVLKGEQDRPRAVVVNPEKGYMYFTNLQERSPKIERAALDGTEREVLFFSGLSKPIALALDSRLGKLFWADSDLRRIESSDLSGANRIVLEDSNILQPVGLTVFENWLYWIDKQQQMIEKIDMTGREGRTKVQARIAQLSDIHAVKELNLQEYRQHPCAQDNGGCSHICLVKGDGTTRCSCPMHLVLLQDELSCGEP
B2: the Kd with L-39F7 worked out at 6.4 nM; with L-αGFP, 9.7 nM.

B3: F-FGF21FL (other)
chain: HPIPDSSPLLQFGGQVRQRYLYTDDAQQTEAHLEIREDGTVGGAADQSPESLLQLKALKPGVIQILGVKTSRFLCQRPDGALYGSLHFDPEACSFRERLLEDGYNVYQSEAHGLPLHLPGNKSPHRDPAPRGPARFLPLPGLPPALPEPPGILAPQPPDVGSSDPLSMVGGSQGRSPSYES
On to B3, for which the Kd is 92.3 nM with FZD7 CRD and 10.1 nM with Human βKlotho.
